{"source": "paper PMC3064780", "about": "(Nucleic Acids Research, 2010)", "key": {"[1]": {"molecular_target": "T1, eIF4A/eIF4G_mid complex (Saccharomyces cerevisiae, UniProt P10081)", "T1 sequence (P10081 1-395)": "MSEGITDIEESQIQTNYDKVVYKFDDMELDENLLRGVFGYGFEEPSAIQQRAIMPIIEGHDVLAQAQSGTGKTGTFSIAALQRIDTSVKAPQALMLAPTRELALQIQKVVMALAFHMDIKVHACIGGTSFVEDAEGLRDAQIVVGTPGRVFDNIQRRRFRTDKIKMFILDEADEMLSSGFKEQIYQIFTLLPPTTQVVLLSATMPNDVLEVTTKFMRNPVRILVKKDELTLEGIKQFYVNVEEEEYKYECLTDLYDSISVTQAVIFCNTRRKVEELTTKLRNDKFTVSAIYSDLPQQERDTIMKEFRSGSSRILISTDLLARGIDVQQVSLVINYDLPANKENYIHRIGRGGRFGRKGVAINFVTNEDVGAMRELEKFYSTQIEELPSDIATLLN", "T1 sequence (P39935 572-853 K590R partner)": "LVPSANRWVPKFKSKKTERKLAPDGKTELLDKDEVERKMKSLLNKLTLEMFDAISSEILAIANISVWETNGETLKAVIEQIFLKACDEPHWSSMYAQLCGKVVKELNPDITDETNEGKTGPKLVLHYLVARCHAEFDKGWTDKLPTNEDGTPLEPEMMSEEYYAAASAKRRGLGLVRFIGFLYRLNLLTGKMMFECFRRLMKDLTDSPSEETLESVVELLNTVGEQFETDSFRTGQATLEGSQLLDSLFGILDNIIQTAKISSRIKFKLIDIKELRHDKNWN", "assay": "competitive titration of the mantADP/protein complex, or ITC", "assay_type": "binding", "conditions": "pH 7.5, 80 mM KCl, Mg2+; eIF4G_mid present"}, "[2]": {"molecular_target": "T2, eIF4A (Saccharomyces cerevisiae, UniProt P10081)", "T2 sequence (P10081 1-395)": "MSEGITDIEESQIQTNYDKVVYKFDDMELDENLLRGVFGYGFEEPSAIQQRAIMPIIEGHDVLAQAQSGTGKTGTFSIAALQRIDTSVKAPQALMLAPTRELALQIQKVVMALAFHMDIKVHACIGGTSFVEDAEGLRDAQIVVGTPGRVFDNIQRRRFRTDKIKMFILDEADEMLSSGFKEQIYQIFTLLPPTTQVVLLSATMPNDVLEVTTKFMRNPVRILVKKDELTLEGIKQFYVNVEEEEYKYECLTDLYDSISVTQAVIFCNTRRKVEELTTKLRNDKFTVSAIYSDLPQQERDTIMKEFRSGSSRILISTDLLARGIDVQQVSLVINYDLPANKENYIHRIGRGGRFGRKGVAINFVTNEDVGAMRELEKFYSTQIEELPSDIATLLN", "assay": "competitive titration of the mantADP/protein complex, or ITC", "assay_type": "binding", "conditions": "pH 7.5, 80 mM KCl, Mg2+; without eIF4G"}, "[3]": {"molecular_target": "T2, eIF4A", "assay": "ITC or competitive titration", "assay_type": "binding", "conditions": "pH 7.5, 80 mM KCl, Mg2+; without eIF4G"}, "[4]": {"molecular_target": "T1, eIF4A/eIF4G_mid complex", "assay": "ITC or competitive titration", "assay_type": "binding", "conditions": "pH 7.5, 80 mM KCl, Mg2+; eIF4G_mid present"}, "[5]": {"molecular_target": "eIF4G_mid (aa 572–853 of eIF4G, middle domain) (yeast) (UniProt P39935)", "assay": "ITC"}, "[6]": {"molecular_target": "T3, eukaryotic translation initiation factor 4A (eIF4A) (yeast, UniProt P10081 1-395)", "T3 sequence (looked up)": "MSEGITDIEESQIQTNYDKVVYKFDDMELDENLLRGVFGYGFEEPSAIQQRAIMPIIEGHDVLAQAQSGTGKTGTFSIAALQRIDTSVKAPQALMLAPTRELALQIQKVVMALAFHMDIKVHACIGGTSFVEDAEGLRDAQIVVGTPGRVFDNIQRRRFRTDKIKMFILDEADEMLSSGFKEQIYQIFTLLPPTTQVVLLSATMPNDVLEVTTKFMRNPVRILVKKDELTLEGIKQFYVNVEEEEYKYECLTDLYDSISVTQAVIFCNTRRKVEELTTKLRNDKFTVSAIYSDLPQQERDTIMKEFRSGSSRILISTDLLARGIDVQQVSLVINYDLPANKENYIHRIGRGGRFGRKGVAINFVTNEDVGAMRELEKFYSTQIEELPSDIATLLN", "assay": "ITC"}, "[7]": {"molecular_target": "T4, eIF4A_E43R (yeast, UniProt P10081 1-395, E43R)", "T4 sequence (looked up)": "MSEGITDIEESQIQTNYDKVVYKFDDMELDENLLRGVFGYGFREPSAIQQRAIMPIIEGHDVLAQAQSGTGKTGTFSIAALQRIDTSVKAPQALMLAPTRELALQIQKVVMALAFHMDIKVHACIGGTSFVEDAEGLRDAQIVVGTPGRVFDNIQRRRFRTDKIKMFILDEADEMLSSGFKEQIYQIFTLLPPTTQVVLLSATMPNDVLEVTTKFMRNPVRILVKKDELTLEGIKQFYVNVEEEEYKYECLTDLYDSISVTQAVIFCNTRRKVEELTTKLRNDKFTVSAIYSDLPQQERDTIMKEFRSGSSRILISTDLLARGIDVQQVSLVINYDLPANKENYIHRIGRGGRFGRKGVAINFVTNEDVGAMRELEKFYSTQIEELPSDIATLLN", "assay": "ITC"}}}
{"molecule": "Nc1ncnc2c1ncn2[C@@H]1O[C@H](COP(=O)(O)OP(=O)(O)O)[C@@H](O)[C@H]1O", "note": "[ADP]", "values": [{"measurement": "Kd", "setting": "[1]", "value": "the affinity of eIF4A for ADP and ATP is moderately decreased in the presence of eIF4G"}, {"measurement": "Kd", "setting": "[2]", "value": "the affinity of eIF4A for ADP and ATP is moderately decreased in the presence of eIF4G"}]}
{"molecule": "Nc1ncnc2c1ncn2[C@@H]1O[C@H](COP(=O)(O)OP(=O)(O)OP(=O)(O)O)[C@@H](O)[C@H]1O", "note": "[ATP]", "values": [{"measurement": "Kd", "setting": "[3]", "value": "the affinity of eIF4A for ADP and ATP is moderately decreased in the presence of eIF4G"}, {"measurement": "Kd", "setting": "[4]", "value": "the affinity of eIF4A for ADP and ATP is moderately decreased in the presence of eIF4G"}]}
{"molecule": "eIF4A-RecA_C (aa 226-406) (domain or fragment)", "values": [{"measurement": "Kd", "setting": "[5]", "value": 1.3, "unit": "µM"}]}
{"molecule": "eIF4G_K831E/S834D/R835E (domain or fragment, yeast, UniProt P39935 572-853, looked up) LVPSANRWVPKFKSKKTERKLAPDGKTELLDKDEVERKMKSLLNKLTLEMFDAISSEILAIANISVWETNGETLKAVIEQIFLKACDEPHWSSMYAQLCGKVVKELNPDITDETNEGKTGPKLVLHYLVARCHAEFDKGWTDKLPTNEDGTPLEPEMMSEEYYAAASAKRRGLGLVRFIGFLYRLNLLTGKMMFECFRRLMKDLTDSPSEETLESVVELLNTVGEQFETDSFRTGQATLEGSQLLDSLFGILDNIIQTAEISDEIKFKLIDIKELRHDKNWN", "values": [{"measurement": "Kd", "setting": "[6]", "value": "1.1 ± 0.1", "unit": "µM"}]}
{"molecule": "eIF4G_R835E (domain or fragment, yeast, UniProt P39935 572-853, looked up) LVPSANRWVPKFKSKKTERKLAPDGKTELLDKDEVERKMKSLLNKLTLEMFDAISSEILAIANISVWETNGETLKAVIEQIFLKACDEPHWSSMYAQLCGKVVKELNPDITDETNEGKTGPKLVLHYLVARCHAEFDKGWTDKLPTNEDGTPLEPEMMSEEYYAAASAKRRGLGLVRFIGFLYRLNLLTGKMMFECFRRLMKDLTDSPSEETLESVVELLNTVGEQFETDSFRTGQATLEGSQLLDSLFGILDNIIQTAKISSEIKFKLIDIKELRHDKNWN", "values": [{"measurement": "Kd", "setting": "[6]", "value": "1 ± 0.1", "unit": "µM"}]}
{"molecule": "eIF4G_mid (aa 572–853 of eIF4G, middle domain) (domain or fragment, yeast, UniProt P39935 572-853, looked up) LVPSANRWVPKFKSKKTERKLAPDGKTELLDKDEVERKMKSLLNKLTLEMFDAISSEILAIANISVWETNGETLKAVIEQIFLKACDEPHWSSMYAQLCGKVVKELNPDITDETNEGKTGPKLVLHYLVARCHAEFDKGWTDKLPTNEDGTPLEPEMMSEEYYAAASAKRRGLGLVRFIGFLYRLNLLTGKMMFECFRRLMKDLTDSPSEETLESVVELLNTVGEQFETDSFRTGQATLEGSQLLDSLFGILDNIIQTAKISSRIKFKLIDIKELRHDKNWN", "values": [{"measurement": "Kd", "setting": "[7]", "value": "0.2 ± 0.02", "unit": "µM"}, {"measurement": "Kd", "setting": "[6]", "value": "0.6 ± 0.1", "unit": "µM"}]}
